Measurements taken from the DeepSol protein solubility set.

Assay: soluble on expression in E. coli; label from the status in PepcDB or PDB records
With “MAHHHHHHMMRWAVDVTGIDVAEDLEREQRKCVYKVPRAANGESWHAVDDWRANASEYNDELGKVWALTRDEVQDAIAERALTANALFCNVGRTLAGALQRQGSITIAAGCASQLRGSCGRGLQWDGLLSNTQSIVSNDFACDAVPSTREVRVFSTFLNAEGKRMTVTVNMTQPTYRGVDVVAAFLQQAVATNESLSQRYSTNPRLYKLFIADEDTGEEEMAAQLDLGAQNFSCYAVNPMPAAKLFLFPQRTALLNTTTRDVNLTVQVRPLDPQAKAVQRQCVVPADMLAESLEATICSRLPASGIIQGSLRIMHGPMELNINEYYNFGAGCGQPNCPIAERTVLSLFRFGVREVVVNGRAVEEAPTEVLRDLTEDIIIDMGVDEAVSFQQFEVICINKYGARQQRLLCVDGEHLYTMRPNASEALPKTTERTIKDIEEVRIFADKPKYMEIAYTKSSHFEEDHFECTTTYNCALLNEKIRIVRRELRKREAEEQAASVKNETAMQRFMTGIRSRWFGGALQS” the “soluble on expression in E. coli” value was “not soluble”. With “MAHHHHHHMMSADPNSFEAIRPKLTAQTLQDIEGLDPQKYGFGREECCGPIPTKIIGSMSLREHIFLNTRMPAREWDKRTENVPGFKELSQRVKHALPDASFTVSHLDQDTEDSILHCKVDDDKKAVIITQYSSVSEPYELPWEVKGTLAVDRSGEYFIFVCSHFTRDARCGYCGSVLIDLFRHALLEKMGAGGTARVTVCSCSHVGGHVYAGNVIIYSRHGGICYGLFKPEDVLPVVDAIAEDKGAIPESLRNRIRGQMGSNAS” the “soluble on expression in E. coli” value was “soluble”. With “MAHHHHHHMNYDKLNLFKENFDMMYVIEEIETHLHEKKHLLCDINENILISEKNKTSIDIYEKHLIEKQIQILKKNKINYKKLNNINYVKYFLPLCIQPKTNNTDKCLSERDVYMKNFKKKNILRELHVKKRLTEYRINQFIEKYTGKFLKNNVLHKQISKIYNNKSKIEIFIKGDNFSYNRVIGDIAFFDSKPNVLLENVKYIVRKRKKKKLNNIKKNINI” the “soluble on expression in E. coli” value was “not soluble”. In the case of “MAHHHHHHMPAVKWSSPVVRNELMSLTRLPAEMQRAAAAAVAAHKNAYSPYSNFSVGAALLHDDGSVTAGCNYENCTLQSCCAERCAIVRANVEGHRRANAVAVYGRSYGAATPTNPPPVDALCPPCGLCRQLLVEVADLSQNFEEFMVVLVALDAQRAKVVRLADLVPAKFGPADIGMDVTQLGCHPSA”, the “soluble on expression in E. coli” value is reported as “not soluble”. In the case of “MAHHHHHHMPCNCRQGTGTHDHLQDGFARGGMFGVGSPLNAQVDVDLLQLWNSRNSVSEAARIFDPAKGDNDQPICSDADPELLLLIPLKEVCRIRSVSILGTNDDFAPSQVKLFCNPTGVVGFDSVRRLQHQEEIQLAQVSADDRIAYRLNPAKFSSAGCMGMLFEHSFGDDETHILRIELFGESTGRPVYQQTATNVVYEAMANPTDHNVGEELKKTFTIF”, the “soluble on expression in E. coli” value is reported as “soluble”. For “MAHHHHHHMPDGQQQSAKCATQVQNGEEATRNTYPRRDDTKLHVGLDYSSFYLDTPYKIIKCMNKGSHFLYWGSDTLCGQSDQVTKEFKMNEMKKNNCEELRNSRFIFFDSQKKLLVLRYNIRKNSFNYVSDSDPIYVYFYQLHEKNFLDDNIIKENKNSLLIYPYTYVKIWESLTCYINEEVINKIEPVNKTFCSSFLEEEVEEEKKKKKGGTDLRREEEMNLCNQPYMFYSVIPRYPASKTYPKEGRVSGGSRHKKEDNVGVITAEGDGASSINMGGDGSGGINTEGDGSGGAGGINMEGDHPVDPDEPPNDHLDGA”, the “soluble on expression in E. coli” value was “not soluble”. In the case of “MAHHHHHHMPHIPRNHYLVVHDAIRKLLGPDAQLAAFVKAQHAFQCDMLVNDARTDPEELTRAGARHSGGGIGDDAAAKAGVGELARGLQAVLGICDVVPHTRRVDVIFRDRSLIQLALGAAKRDLPYALETGADVNQEPDWRLRNRLRISLGYDEELFLAQCTRSMNVAARILEKCAFDYARYSALMSTNAAMAAMYEASGQRWQAVLPPVTYWQAHCYSLMKAYPCRHYQQIVATVEHNFAAYYGEFPMTNPYCDGEDLNTIQVVRWLCEAFNAGAAVSHVTSAASSPVTVNEWQTVDCSMPAAMEDGDAEKGAAVMDNMADGRSSQEGRH”, the “soluble on expression in E. coli” value is reported as “not soluble”. In the case of “MAHHHHHHMPINPEYIPLPKSKEMFAIASWRDSPGLNATPAAHPGVSGSPHLASLDALRNGKGMAGMHAAATTTTTTTNTVTAAGGSLLPPAVQPAEDSKDAAKSKAPLTVAAGKKKKRKPASGATTSTASVAGSGVRSDDVDDFFVHILLPSCVSMQTLEFELQAQTTPLKSIEVGLPKVLFPRKPVGGAGGDASPPTTTALAPAVASAKIVSSPSCAPAVNPTNNELSLPLMRLPPADLPEPAPSESSCAAPPSASAAAAAHVNGDGTASAAAASGEHHGGEYQVSLLFAEKAEAEKTVTFVQRRWPTAAVSLASRSRSVLNATLVLKGMPNQAKTETVLTEMQNLPHTPSYVRLLRSERGVFKGVVFVKYANCEIAEECKLRLEKFVLGSRPLKVEFKKKSTAAASVSAAVIESKRSLQELVRELRVSAEHEGFHLSRSDVAKEALKVLKQLCQSYGLLFDMNDQQVTVRRVLGSNGIGSEKPSPALRPQSMAPAWAPATPAPLRPMDFKGISHWKDIRSQASTLGIMRPLGPEDGKPAFSAGRGRPL”, the “soluble on expression in E. coli” value is reported as “not soluble”. In the case of “MAHHHHHHMPPSTYAATAANAEAQGDDVDMHVMTYDQRCHGRSTFVGGEDHLSIEVLVRDFLDVLQYAKTELYSNSNVYVLGHSLGGAVVARALSGNKSALERVSGVLLVDVVEGTAQLSLQHMKSFLKNRPNTFPEVKDAEVWFLRMGGMQNPQGAAVSVPPLLQKNDETGLWQWRTDIRKMESVWDGWFAGLDEAFISLPCAKMLCTANAERLDKTLTVAQMQGKFQLEVIGNGCGHYVMDDATPTVVAKVRRFVKRNEELAQKLQLMNKNLSGQKINTTVPPTRT”, the “soluble on expression in E. coli” value is reported as “not soluble”. With “MAHHHHHHMPRDTHVLRFKVLTVECAALPDGQQYTVMYHRGNSNRSTPCYTAQGGVINFASMPEGAAVVHFKAGHGGGRFAPKYIRFMIEEYTRGMPRRLVGETEADCTQVLKDYGASGSGILTVVFRLYGTTAKMRIAVLVYPEHAPPLSFDGLIDPSEVAAPLPTQAVKVMSRGEAMMILMGLETLLERRRAMKAEGQSLPQSREEKKLAELEKRRKALVGSEGLATEVIKTRCEEVVAVQYTALARKHRNNFIGQTAAYLREMAMLAGEDFIGDDGDSSGDTVLEQLNRVNRSIEEVEMQVKKLEEEQAALRRIQHKVDVMAELTVSLDKVAALQQKMQVLKESRTALTEAMKKQAAKKNTPLAREVTAINTRIAALNAEQQQMAPRIQHMVAVAASHVVKWARSKNPPELDTKSCIDSLHETGGNARNPVDDLFSDAGKPKTSKEQSMLDDVQRKQVVEALKGLETTTAPLSTRSPTSASSSSGHRTPRDLFADAGLPSMGDFSDTKPKEEETATKRKGDTSTTPLHEDPLKPSGLGVDMFSAKPAPAAASNVPAGLPSMNDFMRSSTASRQQSAQPTFDFGSILQTSSVSPQMGGGFVLEPQPSEAAASSFAAAAPSAVSGAYQTKDYPYYDEMDDFTVPPDAADSKNYGAVEITGGIFSFQDDTSSPAYVAPRPTFDFGPSSGGDDRPSGVGVTVSPAETFSFGGGAADELSTNNPRNSSDNPYTGITNLPTYNFSS” the “soluble on expression in E. coli” value was “soluble”. With “MAHHHHHHMQKIQNAVRRRSRFFKWDVKWYSSKVKVEKKAGERHNDRHDSHDSHDSHKDIPQDSRPDTRVGQERKYNLWRWGCSGEGIFSSVKVGEKNKMPEKVPNFENAKIEKLSAGCDHAAFIVDGRIFTYGLNDKGQLGRSIEEENDQNKSYTLTPREVKTEGNVKFKDVCCGYKHTVAVDVNNNLYSWGWGGNFFKGANGLGHGNKQNLSTPKKVESFKSDDSEFVNICCGDQHSLVLTKNGKVYGCGRGEFGRLGKGNHGDQLFFEEIDFFISNNITVKGISCGHSFSAALSTDGEVYVWGRNDYGQLGIENSIGDLYSHEVYPNKVKYFDMENIKIKFIACGDNHMIACSENNVIFFWGSRAWLEPKAITLSPLYQNSVIKKNIDKIEAGGNTYYYSMLLSDNKLYSWGKYNSSCLALGDKKNHNEPTLVDSKLFNDEIVCDISCGRGRVLAKTLAAD” the “soluble on expression in E. coli” value was “not soluble”. With “MAHHHHHHMQKLRADWTKHFDSEKASMTAFRDYDFERRVNDMRRLQNAVDHFDHAVRQGMMAMKEIASAYEAVGQAFTELTLTNNNPVPGPGEAEEPNPYPTEADVQYMSQPNAGAAAADYAASVASTRMPDEANSQVRRLAKTFAEEARRINEGPPFQSYNAGIHRDVHNRLLPVLEHLKSINEYRHKHIEALERYNKYKAEVEKVEKHYTKKGKPFCDSKGHKKYTEKRDEAWKEYITRRDKFNKTFGMLMEVNDHAAAQIIHRYLVLNHEYLQQLVASMDRVLPAMAEVYPLNNEYNSLQNTLILEAVANAKTPFADHSKIRSKQADSDKSDGAGDERHEDVQEAMDAHYEAQQSTLTSMSSDGGSNLASGSRLEDSVSYDAHVNPSTALESMEQPPDPEQDDV” the “soluble on expression in E. coli” value was “soluble”. For “MAHHHHHHMQQSLKNQEHIWAVLQKMRMEMNECFAEHERMLRQAHGQLKERLDKIESAFVARNGGVGQLVGNSSSSLGHLDHATPVYTRFVSDKKGSPAGMRVTMLSTPPNERMQLMPPDSRGARSDVLPQPVDPTDWVALAAPSRQEATPAVSPHNRWTNDDSIHAEKTPSVDATCFEALNNLMNDDDFQHSTLESVIPSYTQDDDSKQLQSQPNLGTYTKKNDIIHMGAPGSSQTQHFTKSLKVTYMDGRPQAVPIPDGPPDEPDKLGIDVNAQCKVLVEFKRKRVLQFESKEYVPPGSYVMVGGDRGEDLGLVTYTWCETTKSLKGELGEFGNGSNKTVVLCVGLTGSTLTRSIGLGAGTVLRLADDSDVKQLHTVQVELERRAIDVCSQRVLERGLPMTIVDAEYQFDKKKLTFFYEAQQRMDFRELVRDLYKSFRARIWMELVEN”, the “soluble on expression in E. coli” value was “not soluble”. In the case of “MAHHHHHHMQRHTVEKKLQRSTHAAECHTDVAVVRLPHVQREVRQRLVHHAARVAVDSSLRQGRHNRVGHLKGKTRRAMPSVPAAARARVAVHRLRPGHVARRVVVARAAPEHHHALRKHTVVQHLPPFLVQVAPHHKPRGRRHNRVRWKKFGKGCTSFHLTVVCKHHSGAAARQLNFLLRTWHT”, the “soluble on expression in E. coli” value is reported as “not soluble”. With “MAHHHHHHMRKKMKTLHLTGKKNFLFQNMQLRLYKEAPPKVFNKKSSHSSLWIQRQITDRYVLKAKNDNYRSRAAYKLIELDNKYMFLKKNKTILDIGCYPGSWCQVILERTKNYSNEIIGIDKKIMDPLPNIHFIHAEIGGAKDNPNDSNLVDVKLREILQGKKVDIILSDAAVPCVGNKIDDHMNSCELTLGITNFMEQYINMGGTYVVKMYLGSQTDNLKTYLKTIFQFVNTTKPKASRRESREIYLVCRNFLGRKKIGEDVQVKGAFSLKEGYY” the “soluble on expression in E. coli” value was “not soluble”. For “MAHHHHHHMRKLSGDLKATAATPLTPPVTTPQPQPDGTDRSKSAGGQATYEPLHVLGQGSFGVVMMARVRETGKMVAVKKVLFDRRLHHRELLLLRDHLGPGTHAGQAGTGNHDDPGKEAGKTDPSNTNNSAGEVGFTPLGDLASVPTTVSYHPCIVRLLDHFTVAGPNGEQYLYIVMDYLPLDIHHLHHIYLRQKQQRMPFILVKVIMFQLARALMFLHLRGICHRDVKPSNLLIDPETGVLKLCDFGSAKVMQPQGVNGPIEKNVSYICSRYYRAPELLLGSLYYHFHVDMWAAGCVLAELLCGEVLFKGASTVDQMAEIFKVLGAPSRQELLALNPQGAEALFHATGAGLEVTPTSAANTATSSDYLQRYHALRIKALQWQNVLPPNTPPAAVSLVGELLRYTPAERLSAAEVLEHSFFDDIFAEDASLPNGAPLPVSMFEVTAEEMEALPPWLLERMASAEASARRRHVSAGGSGKVVPPQKRQEQEGRK”, the “soluble on expression in E. coli” value was “not soluble”. In the case of “MAHHHHHHMRMSLTTRRPFCPVLLNIGSSRAVTLSHFHAKVCPSITATVKQTIRELDDEASPNHQRRQESCFSSGELRLRPYGFSPERPQLQHESWSCAWHSYLNAVRLRGEVSAAGVAPLPPTATSANSTSHNDDEFFPMTGTLTLPVPVVVPTSNNEPSNETIMMEFFRVDAFIPVRVQMYHVMRRLIKMQAVWNNIVAIGIVVPTHEVEYFISAARAAHASDGERTPHALLSRKPSVLVYDPEGLRFQAPESKRLRK”, the “soluble on expression in E. coli” value is reported as “not soluble”.
